Data on 125 sequences can be found in the supplement of paper PMC9112550, “Optimization of the antimicrobial peptide Bac7 by deep mutational scanning” (BMC Biology, 2022).
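Also: peptides expressed intracellularly from a pBAD plasmid library in pooled LB shake-flask culture, induced with 0.3% L-arabinose, DNA abundance read by NGS, three biological replicates, DESeq2 with apeglm shrinkage.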

The data set relates to Escherichia coli TOP10. Description: shrunken log2 fold change of peptide-encoding DNA abundance (4.5 h post-induction vs induction); higher = less antimicrobial activity (less host growth inhibition). The settings on record: time post-induction: 4.5 h; library: site-saturation at positions 5, 18, 19, 20.
For RRIRNRPPRLPRPRPRPESFPRP, the “shrunken log2 fold change” value is -0.0337.
As for RRIRPRPPRLPRPRPRPRCDPRP, the “shrunken log2 fold change” value came to 0.0398.
The figure for RRIRDRPPRLPRPRPRPKYAPRP is 0.0137; for RRIRHRPPRLPRPRPRPPTRPRP it is 0.429; for RRIRGRPPRLPRPRPRPYCIPRP it is 0.174.
The figure for RRIRNRPPRLPRPRPRPHFKPRP is -0.52; for RRIRQRPPRLPRPRPRPYLKPRP it is 0.00123; for RRIRLRPPRLPRPRPRPHFPPRP it is 2.38.
As for RRIRPRPPRLPRPRPRPWVWPRP, the figure is 0.267.
With RRIRERPPRLPRPRPRPCPGPRP, the “shrunken log2 fold change” value was -0.451.
As for RRIRQRPPRLPRPRPRPWQLPRP, the “shrunken log2 fold change” value was -0.0199.
As for RRIRERPPRLPRPRPRPPTNPRP, the figure is 0.0754; as for RRIRIRPPRLPRPRPRPADIPRP, 0.00782; as for RRIRNRPPRLPRPRPRPVKSPRP, 0.00699.
The figure for RRIRRRPPRLPRPRPRPQMWPRP is -0.00576; for RRIRYRPPRLPRPRPRPGTYPRP it is -0.0385; for RRIRYRPPRLPRPRPRPTFKPRP it is -0.445.
As for RRIRERPPRLPRPRPRPQESPRP, the figure is -0.239; as for RRIRSRPPRLPRPRPRPMCMPRP, -0.000628; as for RRIRHRPPRLPRPRPRPFVRPRP, -0.073.
Consider RRIRFRPPRLPRPRPRPQCFPRP, for which the “shrunken log2 fold change” value was -0.0591.
The figure for RRIRCRPPRLPRPRPRPFPAPRP is -0.0653.
As for RRIRARPPRLPRPRPRPGVYPRP, the figure is 0.011; as for RRIRKRPPRLPRPRPRPDLFPRP, 0.529.
RRIRVRPPRLPRPRPRPAKGPRP: the “shrunken log2 fold change” value was -0.283.
As for RRIRPRPPRLPRPRPRPGHAPRP, the figure is 0.461.
As for RRIRWRPPRLPRPRPRPHWYPRP, the figure is 2.17.
The figure for RRIRARPPRLPRPRPRPDRMPRP is 0.0124; for RRIRLRPPRLPRPRPRPVVIPRP it is -0.0403; for RRIRRRPPRLPRPRPRPCYFPRP it is -0.0239.
For the sequence RRIRCRPPRLPRPRPRPQFKPRP, the “shrunken log2 fold change” value is -0.562.
As for RRIRYRPPRLPRPRPRPVKPPRP, the figure is 0.00519; as for RRIRHRPPRLPRPRPRPDTIPRP, -0.0628.
Regarding RRIRERPPRLPRPRPRPDNSPRP, the “shrunken log2 fold change” value is -0.981.
RRIRRRPPRLPRPRPRPLPDPRP: the “shrunken log2 fold change” value amounted to 0.112.
The figure for RRIRDRPPRLPRPRPRPTQFPRP is 0.216; for RRIRTRPPRLPRPRPRPHFAPRP it is -0.227; for RRIRNRPPRLPRPRPRPISIPRP it is 0.0125.
The figure for RRIRGRPPRLPRPRPRPAKQPRP is 0.199; for RRIRNRPPRLPRPRPRPLQPPRP it is -0.187; for RRIRCRPPRLPRPRPRPTLCPRP it is -0.0107.
RRIRERPPRLPRPRPRPWWWPRP: the “shrunken log2 fold change” value is 0.0554.
Regarding RRIRARPPRLPRPRPRPKFRPRP, the “shrunken log2 fold change” value was -0.043.
As for RRIRSRPPRLPRPRPRPPRKPRP, the “shrunken log2 fold change” value stood at 0.73.
The figure for RRIRARPPRLPRPRPRPDHWPRP is 0.0446; for RRIRWRPPRLPRPRPRPEHFPRP it is 0.00426.
The figure for RRIRHRPPRLPRPRPRPCWMPRP is -0.032; for RRIRRRPPRLPRPRPRPSQPPRP it is 0.104; for RRIRWRPPRLPRPRPRPDWIPRP it is -0.0204.
The figure for RRIRVRPPRLPRPRPRPARDPRP is 0.355.
As for RRIRQRPPRLPRPRPRPFSTPRP, the “shrunken log2 fold change” value stood at 0.0344.
As for RRIRYRPPRLPRPRPRPMMPPRP, the figure is -0.0554.
Regarding RRIRHRPPRLPRPRPRPRTFPRP, the “shrunken log2 fold change” value stood at 0.147.
The figure for RRIRPRPPRLPRPRPRPPPSPRP is 1.12.
The figure for RRIRARPPRLPRPRPRPVWDPRP is 0.312.
Consider RRIRNRPPRLPRPRPRPAPMPRP, for which the “shrunken log2 fold change” value came out at 0.237.
In the case of RRIRFRPPRLPRPRPRPFGHPRP, the “shrunken log2 fold change” value was -0.19.
RRIRMRPPRLPRPRPRPCCSPRP: the “shrunken log2 fold change” value was 0.0205.
The figure for RRIRTRPPRLPRPRPRPHYGPRP is -0.0891; for RRIRRRPPRLPRPRPRPTMRPRP it is 0.667.
The figure for RRIRLRPPRLPRPRPRPDNTPRP is -0.386; for RRIRVRPPRLPRPRPRPIIIPRP it is -0.235; for RRIRLRPPRLPRPRPRPFMQPRP it is 0.0179.
As for RRIRQRPPRLPRPRPRPRTSPRP, the figure is 0.131.
As for RRIRYRPPRLPRPRPRPPAPPRP, the “shrunken log2 fold change” value turned out to be 0.76.
In the case of RRIRCRPPRLPRPRPRPFACPRP, the “shrunken log2 fold change” value is -0.22.
As for RRIRHRPPRLPRPRPRPSFQPRP, the figure is -0.652; as for RRIRLRPPRLPRPRPRPTGCPRP, 0.19; as for RRIRNRPPRLPRPRPRPRASPRP, 0.211.
RRIRNRPPRLPRPRPRPMLSPRP: the “shrunken log2 fold change” value turned out to be 0.081.
For the sequence RRIRQRPPRLPRPRPRPECEPRP, the “shrunken log2 fold change” value was determined as 0.028.
As for RRIRPRPPRLPRPRPRPCITPRP, the figure is -0.373; as for RRIRPRPPRLPRPRPRPTQHPRP, 0.262; as for RRIRCRPPRLPRPRPRPTCSPRP, -0.157.
The figure for RRIRSRPPRLPRPRPRPFPVPRP is -0.516; for RRIRGRPPRLPRPRPRPDMLPRP it is 0.526.
As for RRIRNRPPRLPRPRPRPPEFPRP, the figure is -0.144; as for RRIRGRPPRLPRPRPRPGDMPRP, 0.511; as for RRIRLRPPRLPRPRPRPWGRPRP, -0.0734.
As for RRIRDRPPRLPRPRPRPYRHPRP, the “shrunken log2 fold change” value is -0.0137.
Take RRIRPRPPRLPRPRPRPMPLPRP: the “shrunken log2 fold change” value is -0.0538.
For the sequence RRIRIRPPRLPRPRPRPGENPRP, the “shrunken log2 fold change” value was -0.0334.
As for RRIRHRPPRLPRPRPRPMAPPRP, the “shrunken log2 fold change” value is 0.0599.
As for RRIRSRPPRLPRPRPRPYHLPRP, the figure is -0.415; as for RRIRVRPPRLPRPRPRPQWWPRP, 0.0756; as for RRIRIRPPRLPRPRPRPCWCPRP, -0.063.
Regarding RRIRGRPPRLPRPRPRPYLIPRP, the “shrunken log2 fold change” value is -0.0775.
As for RRIRGRPPRLPRPRPRPHMTPRP, the figure is 1.45; as for RRIRERPPRLPRPRPRPYHWPRP, -0.0488; as for RRIRYRPPRLPRPRPRPYILPRP, -0.264.
As for RRIRIRPPRLPRPRPRPFRIPRP, the figure is -0.103; as for RRIRIRPPRLPRPRPRPILAPRP, -0.286.
RRIRNRPPRLPRPRPRPLKSPRP: the “shrunken log2 fold change” value was -0.258.
The figure for RRIRDRPPRLPRPRPRPFGDPRP is -0.0062; for RRIRNRPPRLPRPRPRPIDSPRP it is -0.0173.
As to RRIRWRPPRLPRPRPRPAWHPRP, the “shrunken log2 fold change” value stood at 0.162.
The figure for RRIRNRPPRLPRPRPRPANTPRP is -0.242; for RRIRCRPPRLPRPRPRPYIVPRP it is -0.168.
As to RRIRPRPPRLPRPRPRPMVFPRP, the “shrunken log2 fold change” value was -0.166.
For RRIRERPPRLPRPRPRPAQFPRP, the “shrunken log2 fold change” value was 0.383.
As for RRIRKRPPRLPRPRPRPYMHPRP, the figure is -0.0355.
The figure for RRIRKRPPRLPRPRPRPYAQPRP is -0.00925.
As for RRIRDRPPRLPRPRPRPITQPRP, the figure is 0.000804; as for RRIRGRPPRLPRPRPRPINLPRP, -0.0974; as for RRIRRRPPRLPRPRPRPTHTPRP, 0.66.
Consider RRIRARPPRLPRPRPRPNWVPRP, for which the “shrunken log2 fold change” value is -0.361.
As for RRIRGRPPRLPRPRPRPAYGPRP, the “shrunken log2 fold change” value is -0.0354.
As for RRIRMRPPRLPRPRPRPANVPRP, the figure is -0.0273; as for RRIRERPPRLPRPRPRPGMTPRP, -0.324; as for RRIRVRPPRLPRPRPRPYYQPRP, -0.245.
The figure for RRIRNRPPRLPRPRPRPPWVPRP is -0.0522.
The figure for RRIRVRPPRLPRPRPRPRMKPRP is -0.167.
With RRIRSRPPRLPRPRPRPPKNPRP, the “shrunken log2 fold change” value came to 0.223.
As for RRIRPRPPRLPRPRPRPPNMPRP, the “shrunken log2 fold change” value is -0.0209.
RRIRSRPPRLPRPRPRPLYHPRP: the “shrunken log2 fold change” value is -0.599.
The figure for RRIRYRPPRLPRPRPRPIAWPRP is -0.0381; for RRIRARPPRLPRPRPRPPLYPRP it is 0.606; for RRIRVRPPRLPRPRPRPKNIPRP it is -0.505.
As for RRIRTRPPRLPRPRPRPPELPRP, the figure is 0.194; as for RRIRKRPPRLPRPRPRPWGFPRP, 0.0651; as for RRIRRRPPRLPRPRPRPRYTPRP, -0.186.
Take RRIRIRPPRLPRPRPRPSIPPRP: the “shrunken log2 fold change” value is -0.867.
As to RRIRLRPPRLPRPRPRPKEYPRP, the “shrunken log2 fold change” value was -0.567.
As for RRIRRRPPRLPRPRPRPRYWPRP, the figure is 0.088; as for RRIRCRPPRLPRPRPRPLSVPRP, -0.481.
